To fix the notation:
B1: Pistol ribozyme (parent)
chain: GGGUCGUUGUUCCAUAAUCGCGUGGAUAUGGCACGCAAGUUUCUACCGGGCACCGUAAAUGUCCGACUGGAGCCGUUCGGGCGGCUAUAAACAGACCUCAGGCCCGAAGCGUGGCGGCACCUGCCGCCGGUGGUAAAAAAGAUCGGAAGAGCACACGUCU

Variants of B1 are the subject of the series. In words: aptazyme ON/OFF ratio, guanine; higher = stronger switching; co-transcriptional cleavage with and without guanine.
Turning to U7C U8A U10A C12G C13G, the “aptazyme ON/OFF ratio” value came out at 1.22.
On to U7C U8C G9U U10A, for which the “aptazyme ON/OFF ratio” value was 1.13.
U7G U8C U10C U11G C12A C13G: the “aptazyme ON/OFF ratio” value is 1.22.
The same measure for U7G U8C G9U U10A U11C C12G C13A: 1.14; for U7A U8C U10G U11A C12U C13U: 1.2.
Regarding U8A U10A U11C C12G, the “aptazyme ON/OFF ratio” value came to 1.08.
Turning to U7C G9U U10C U11C C13U, the “aptazyme ON/OFF ratio” value came to 1.
Consider U8C G9C U10C U11G C12A C13A, for which the “aptazyme ON/OFF ratio” value came to 1.2.
As to U7C U8G U10G, the “aptazyme ON/OFF ratio” value is 1.22.
On to U8G G9A U10G C12U C13A, for which the “aptazyme ON/OFF ratio” value amounted to 1.32.
Then U7A G9C U10C U11G C12G C13G, with 1.17.
Then U7A U8G G9U U10A U11G C12U C13U, with 1.18.
The same measure for G9U U10C U11A C12A C13U: 1.57; for U7C U8A G9C U10G U11G C12A C13A: 1.09; for U7G G9U U11A C12U C13U: 1.07.
U8G G9U U10C U11C C12A C13G: the “aptazyme ON/OFF ratio” value was found to be 1.1.
The same measure for U7A U10C U11A C12G C13G: 1.26.
The same measure for U7C U10C U11A C12A C13U: 1.3; for U7G U8G G9U U10G U11C C12A C13G: 1.11.
In the case of G9U U10G U11G C13U, the “aptazyme ON/OFF ratio” value was 1.26.
The same measure for U8A G9A U10C U11A C12G C13G: 1.12; for U8C G9U C12U C13U: 0.959.
For the variant U7A U8G G9C U10G U11A C12A C13U, the “aptazyme ON/OFF ratio” value turned out to be 1.47.
Turning to U7G U8A G9A U10A U11C C12A, the “aptazyme ON/OFF ratio” value came to 1.12.
For the variant U7C U8A G9A U11C, the “aptazyme ON/OFF ratio” value came out at 1.06.
Take U8C G9A U10A U11G C12U C13A: the “aptazyme ON/OFF ratio” value was 1.18.
Take U7C U8A U10A U11C C12U: the “aptazyme ON/OFF ratio” value is 1.01.
Consider U7A U8G U10A C13A, for which the “aptazyme ON/OFF ratio” value worked out at 1.09.
With U7G U8A G9A U10A C12A C13G, the “aptazyme ON/OFF ratio” value stood at 1.12.
Then U8C G9A U10A C13A, with 1.17.
Then U8A U10A C13U, with 1.03; and U7A U8G G9C U10A U11C C12U, with 1.04.
Then U10C C12U C13A, with 1.13; and U7C U8G G9A U10C U11C C12U C13A, with 1.02; and G9C U10C U11A C13G, with 1.07.
As to U7C G9C U10G C12G C13U, the “aptazyme ON/OFF ratio” value was found to be 1.1.
The same measure for U7G U8G U10G C12U: 1.54; for U7C U8G G9U U10G U11A: 1.13; for U7C G9A U10G U11C C13U: 1.06.
The same measure for U7G U8A G9A U10A U11C C12A C13U: 1.14; for U8G G9A U10G U11A C12G C13A: 1.21.
The same measure for U11A C12A C13U: 1.47; for U7A U8A G9U U10G C12A C13U: 1.19.
For the variant U7C U8A U11G C12G C13A, the “aptazyme ON/OFF ratio” value worked out at 1.1.
As for U7A U8G G9A U10C U11A, the “aptazyme ON/OFF ratio” value worked out at 1.68.
The same measure for U7G G9C U10A U11C: 1.17.
Then U7G U8G G9C C12U C13A, with 1.11; and U7G U10C U11A C12U C13A, with 1.12.
As for U7C U8G G9A U10G U11G C13A, the “aptazyme ON/OFF ratio” value was 1.2.
In the case of U7G U8G G9A U10G U11G C12G C13A, the “aptazyme ON/OFF ratio” value turned out to be 1.23.
Then U8G G9A U10G U11G C12U C13G, with 1.46; and U7G U8A G9A C12U, with 1.12.
Then U7G U8G U10G U11A C12U C13A, with 1.33; and U7A U8G G9C U10C U11C C13A, with 0.995.
Then U7C G9U U10A C12U, with 1.37; and G9A U10C U11C C13A, with 1.02; and G9C U10A U11C C12U C13G, with 1.12.
With U7C U8C G9C U10C U11C C12G C13U, the “aptazyme ON/OFF ratio” value amounted to 1.1.
Then U8C G9A U10C U11G C12G C13A, with 1.42; and U8A U10A U11A C13G, with 1.16; and U7C U8C G9C U10G U11A C12U C13G, with 1.07.
Consider U8C U10A U11A C12U, for which the “aptazyme ON/OFF ratio” value was determined as 1.22.
Then U7C U8C G9U U10G U11C C12G C13U, with 1.1; and U7G U8G G9U U10A U11G C13G, with 1.13.
The same measure for U7A G9C U10A U11A C12U: 1.07.
The same measure for U7C U8A G9U U11C C13A: 1.04.
On to U7A G9U U10C U11G C13A, for which the “aptazyme ON/OFF ratio” value was 1.13.
Then U7C U8G G9C U10C U11C C13U, with 1.02.
Then U7G U8G U10C U11G C12U C13A, with 1.16; and U7C U10G U11A C12G C13G, with 1.15.
The same measure for U8G U10C U11C C12A: 1.09; for U7C U8C U10G U11C C12U C13G: 1.11.
As to G9A U11A C12G C13G, the “aptazyme ON/OFF ratio” value came to 1.2.
Then U7A U8C G9C U11C C13U, with 1.03; and U7G U8C G9A U10A U11C, with 1.11; and U8C G9A U10C U11A C12G C13U, with 1.19.
Consider U8C G9A U10A C12U C13U, for which the “aptazyme ON/OFF ratio” value came to 1.33.
With U7G U8C G9C U10C C12G, the “aptazyme ON/OFF ratio” value was 1.1.
The same measure for U7A U8G G9A U11G C12A C13A: 1.16; for U7C U8A U10A C12U C13U: 1.3.
The same measure for U7A G9C U10G U11A C12U: 1.04.
The same measure for U8A G9C U10C U11G C12U C13U: 1.07; for U7G U8A G9C U11G C12U C13A: 1.05.
As to U8G G9U U10A U11G C12U C13G, the “aptazyme ON/OFF ratio” value is 1.1.
Then U8A G9U U10C U11G C12G C13A, with 1.15; and U7C U8C G9U U10A U11C C12U C13U, with 1.15.
Then U8C G9U U10G C13A, with 1.42; and U7A U8C G9C C12A C13A, with 1.11.
In the case of U7C U8G G9U U10C U11C, the “aptazyme ON/OFF ratio” value was 1.06.
Then G9C U10G U11C, with 1.06; and U8C U10G U11A C12G C13U, with 1.18.
The same measure for U8G G9U U10G U11G C12U C13G: 1.09; for U8A U10C U11A C12G: 1.19.
Turning to U7A U8A G9U U10A U11C C12G, the “aptazyme ON/OFF ratio” value amounted to 1.18.
Then G9A U10G U11G C12A C13G, with 1.13.
Then U7G U8C G9C C12U, with 1.28.
Then U8C G9A U10C U11C C12G C13A, with 1.24; and U7G U8G U10G U11G C13A, with 1.62; and U8A G9A C12A, with 1.34.
In the case of U7A U8C G9U U10G U11C C12U C13A, the “aptazyme ON/OFF ratio” value was found to be 1.2.
Then U8G G9U U10A, with 1.2; and U7A U11G C12U C13G, with 1.06; and U7A U8G G9U U10G U11G, with 1.38.
Then U7G G9C U10C U11A C12U C13G, with 1.21.
Then U7A U8A G9A U10G U11G C12U C13A, with 1.25.
With U7C U8G G9C U11G C12G, the “aptazyme ON/OFF ratio” value was 1.19.
Then G9A U10G U11C C12A C13G, with 1.15.
On to U8C G9A U11A C12U C13A, for which the “aptazyme ON/OFF ratio” value was 1.21.
Then U8C G9A U10C U11G C12U C13U, with 1.51; and U7G U8A U10A U11G C12U, with 1.14; and U7G G9C U11G C13G, with 1.31.
U7C U8C G9A U10G C12U C13U: the “aptazyme ON/OFF ratio” value was found to be 1.42.
The same measure for U7C U8G G9C U10C U11C C12G C13U: 1.07; for U7A U10A U11C C12G C13G: 1.17; for U8G G9C U11A C13A: 1.04.
Then G9C U10G U11C C12A C13A, with 1.22.
Then U8G G9A U10A U11A C12G C13G, with 1.39.
U8A U10G U11A C12A C13G: the “aptazyme ON/OFF ratio” value was found to be 1.15.
The same measure for U10C U11A C12U: 1.45; for U7A U8G G9A C12G C13U: 1.37.
Regarding U8C G9A U10G C12A C13A, the “aptazyme ON/OFF ratio” value came to 1.27.
The same measure for U7G U8G G9A U10A U11G: 2.19; for U7C G9C U10C U11A C12A C13A: 1.08.
In the case of U7C U8G G9U U10G U11A C12G C13A, the “aptazyme ON/OFF ratio” value stood at 1.15.
The same measure for U7A U8A U11C C12G C13U: 1.46; for U7A U8G U10C C12U C13U: 1.51.
Then U7A G9C U10A U11A C12U C13A, with 1.13; and U7A U8A G9A U10A U11G C12G C13A, with 1.25.
Consider U8C G9C U11C C12A, for which the “aptazyme ON/OFF ratio” value was 1.08.
With U7C U10G C13A, the “aptazyme ON/OFF ratio” value was 1.2.
The same measure for U7G U8A G9U U11G C13G: 1.02; for U7C G9C U10G U11A C12G C13A: 1.13; for U8C G9A U11G C12G: 1.3.
Then U7G U8G G9U U10C U11C C12G C13U, with 1.33; and U7G G9U U11C C12G C13U, with 1.37.
For G9C U11C C12A C13G, the “aptazyme ON/OFF ratio” value came out at 1.09.
The same measure for U7G U8G G9C U10A U11C: 1.04; for U7C U8G G9A U11G C12U C13A: 1.27; for U8G C12A C13U: 1.12.
As to U7G U8C G9A U11C C12G C13G, the “aptazyme ON/OFF ratio” value was determined as 1.05.
Then U7C U8C G9U U11G C12A, with 1.19.
As to U7A U8G G9C U10G C12A C13U, the “aptazyme ON/OFF ratio” value amounted to 1.56.
For U7C U8C G9A U10A U11G C12G C13A, the “aptazyme ON/OFF ratio” value is 1.13.
Then U8A G9C U10G U11G C12U C13U, with 1.11; and U7C U8C G9A U10A U11G C12A C13U, with 1.16; and U7G U8C G9A U11A C12U C13G, with 1.08.
Turning to U7C U8A G9C U10G C13G, the “aptazyme ON/OFF ratio” value came out at 1.11.
Then U8A U11G C12G, with 1.18.
Then U8A G9C U11A C12A, with 1.19.
The same measure for U7G U8A G9C U10C U11A C12G C13A: 1.03; for U7C U8A G9A U10C U11G C13U: 1.1.
Turning to U7A U8C U10G C12U C13U, the “aptazyme ON/OFF ratio” value was 1.34.
The same measure for U7C U8A G9C U10A U11C C12U C13A: 1.18; for U7C U8G G9C C13U: 1.04.
Then U7A U8G G9C U10A C12A C13U, with 1.32; and U7G U8C G9U U10A C13A, with 1.35.
U7C U8C U10G U11G: the “aptazyme ON/OFF ratio” value amounted to 1.49.
The same measure for U8A U11C C12U: 1.54; for U7A U8C G9U U11G C12A C13G: 1.27; for U8G G9A U10G U11G C12A C13A: 1.57.
The same measure for U8A G9A U10A U11G C13U: 1.18.
Then G9C U10G U11A C12U C13G, with 1.09; and U7C U8C G9A U10A U11G C12G, with 1.25.
Consider U7A U8A U10C C12G, for which the “aptazyme ON/OFF ratio” value is 1.16.
Then U7G U8A G9C U10C C13A, with 1.01.
The same measure for U7C G9C U10C U11A C13G: 1.05; for U7A U8C U11C C12A C13G: 1.31.
